Data on four molecules can be found in publication PMC2836958 (Molecular Biology of the Cell, 2010).

Like-named read-outs stand apart in the source and are kept apart here.

T1: Vps4^E233Q (S. cerevisiae, UniProt P52917 1-437, E233Q)
T1 sequence (looked up): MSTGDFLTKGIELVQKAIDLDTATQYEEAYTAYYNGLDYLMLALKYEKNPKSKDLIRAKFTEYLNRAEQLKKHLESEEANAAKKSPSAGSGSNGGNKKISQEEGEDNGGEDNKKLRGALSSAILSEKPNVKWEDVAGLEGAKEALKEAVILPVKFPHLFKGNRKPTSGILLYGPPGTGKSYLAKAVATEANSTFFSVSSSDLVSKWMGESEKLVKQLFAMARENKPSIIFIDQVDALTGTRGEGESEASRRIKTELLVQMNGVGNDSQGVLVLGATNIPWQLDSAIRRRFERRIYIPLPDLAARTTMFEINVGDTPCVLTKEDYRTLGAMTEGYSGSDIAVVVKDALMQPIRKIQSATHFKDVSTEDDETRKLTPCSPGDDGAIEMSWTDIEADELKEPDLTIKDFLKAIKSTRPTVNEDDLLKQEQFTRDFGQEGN

B1: GST-CT(Did2) (domain or fragment, S. cerevisiae, UniProt P69771 113-204, looked up)
chain: QQITMIMDKFEQQFEDLDTSVNVYEDMGVNSDAMLVDNDKVDELMSKVADENGMELKQSAKLDNVPEIKAKEVNVDDEKEDKLAQRLRALRG
B2: GST-Vps20(C) (domain or fragment, S. cerevisiae, UniProt Q04272 101-221, looked up)
chain: QFINGLKNGNEILKKLNKEFSNVDELMDDVQDQIAYQNEINETLSRSLVGTSNYEDDLDKELDALESELNPEKMNNAKVANMPSTEGLPSLPQGEQTEQKEREEFATEERSDTKEPLALLS
B3: GST-Did2 (natural protein, S. cerevisiae, UniProt P69771 1-204, looked up)
chain: MSRNSAAGLENTLFQLKFTSKQLQKQANKASKEEKQETNKLKRALNENEDISRIYASNAIRKKNERLQLLKLASRVDSVASRVQTAVTMRQVSASMGQVCKGMDKALQNMNLQQITMIMDKFEQQFEDLDTSVNVYEDMGVNSDAMLVDNDKVDELMSKVADENGMELKQSAKLDNVPEIKAKEVNVDDEKEDKLAQRLRALRG
B4: Ist1 (natural protein, S. cerevisiae, UniProt P53843 1-298, looked up)
chain: MAPSMIPFTIKLKTCLKMCIQRLRYAQEKQQAIAKQSRRQVAQLLLTNKEQKAHYRVETLIHDDIHIELLEILELYCELLLARVQVINDISTEEQLVKEHMDDGINEAIRSLIYAILFVDEVKELSQLKDLMAWKINVEFVNGVIADHIDVPEKIIKKCSPSVPKEELVDLYLKEIAKTYDVPYSKLENSLSSSSSNISSDFSDPSGDIEDNDEEKPILALDNDDNDNADAKHPITVKKPRQNSENIKNELKIPKDIKKEVIEKKQSEKKTTKRKTKKEQENDELDELKKRFDALRRK

What all share (test): pull-down
The assay “Ist1” has as its target B4.
Assay [1] addresses T1, Vps4^E233Q.
Assay [2] concerns the target T1, Vps4^E233Q. This is another data set of the same source.

As for B1, the binding result with Ist1 is listed as “binds”.
Consider B2, for which the binding result in the assay with Vps4^E233Q [1] is “binds”.
With B3, in the assay with Ist1, the binding result is reported as “binds”.
Take B4: the binding result in the assay with Vps4^E233Q [2] is listed as “binds”.
